Experimental data: patent US20180142032A1 (Sanofi, published 2018)

Legend:
[1] = molecular target: T1, human LAMP1 at the cell surface (human, UniProt P11279 29-417); assay: flow cytometry, HCT116 stable clones; human LAMP1 on recombinant HCT116 stable clones
T1 construct: native on tumour cells (PDX, Colo205, SW480, LS174T) or from the cloned CDS NM_005561.3 in HEK293 and HCT116; signal peptide 1-28 left out; also called huLAMP1; full length human LAMP1
T1 sequence: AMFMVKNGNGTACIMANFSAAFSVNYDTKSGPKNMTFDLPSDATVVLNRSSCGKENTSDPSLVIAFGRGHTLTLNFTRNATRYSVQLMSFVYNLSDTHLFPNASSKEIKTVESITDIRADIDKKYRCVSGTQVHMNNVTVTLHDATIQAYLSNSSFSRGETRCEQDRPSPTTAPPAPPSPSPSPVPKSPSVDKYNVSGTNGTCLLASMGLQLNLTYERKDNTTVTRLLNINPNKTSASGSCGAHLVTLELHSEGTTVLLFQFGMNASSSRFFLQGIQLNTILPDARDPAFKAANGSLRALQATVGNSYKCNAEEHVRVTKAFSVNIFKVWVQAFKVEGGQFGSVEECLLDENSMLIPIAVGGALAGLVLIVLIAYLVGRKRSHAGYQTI
Description: (§1) HCT116 cells were infected by a lentiviral vector allowing stable integration of the human or the cynomolgus LAMP1 CDS in genomic DNA of cells. Individual clones with different densities of human or cynomolgus LAMP1 cell surface localization were derived from a pool of HCT116 infected cells. […] 100 μL/well of goat anti-human IgG conjugated with Alexa488 (Invitrogen; # A11013) was added for 1 h at 4° C. and washed two times with PBS 1% BSA. The antibody binding was evaluated after centrifugation and resuspension of cells in 100 μl fixing solution (paraformaldehyde at 4% in PBS). Samples were read using Galaxy® Flow Cytometry System (Partec). EC50 values were estimated using BIOST@T-SPEED software.

[2] = molecular target: T2, cynomolgus monkey LAMP1 at the cell surface (cynomolgus monkey, UniProt P11279 29-417 (human entry)); assay: flow cytometry, HCT116 stable clones; cynomolgus LAMP1 on recombinant HCT116 stable clones
T2 construct: also called cynoLAMP1; cynomolgus LAMP1
T2 chain: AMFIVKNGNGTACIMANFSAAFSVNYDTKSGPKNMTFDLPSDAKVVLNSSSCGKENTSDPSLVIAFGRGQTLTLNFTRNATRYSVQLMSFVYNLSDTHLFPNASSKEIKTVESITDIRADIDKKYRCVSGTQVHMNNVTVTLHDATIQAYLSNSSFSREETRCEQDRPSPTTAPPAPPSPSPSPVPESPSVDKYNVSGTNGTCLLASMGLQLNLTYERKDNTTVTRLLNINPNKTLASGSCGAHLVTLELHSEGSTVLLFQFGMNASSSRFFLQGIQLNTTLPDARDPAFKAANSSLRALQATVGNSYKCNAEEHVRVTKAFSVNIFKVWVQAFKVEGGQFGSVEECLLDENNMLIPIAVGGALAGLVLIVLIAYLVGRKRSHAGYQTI
Description: as §1

[3] = molecular target: T2, cynomolgus monkey LAMP1 at the cell …; assay: flow cytometry, HEK293 stable clone
Description: HCT116 stable clone was obtained as described above. HEK293 cells were infected by a lentiviral vector allowing stable integration of the human or the cynomolgus LAMP1 CDS in genomic DNA of cells. Individual clones with different densities of cynomolgus LAMP1 cell surface localization were derived from a pool of HEK293 infected cells. Protocol as described in example above. EC₅₀ values were estimated using BIOST@T-SPEED software.

[4] = molecular target: T3, LAMP1_hL1_mL2_hL34_ΔGYQTI (human; mouse, UniProt P11279 29-412); assay: flow cytometry, transfected 293-F cells
T3 construct: on cells; also called pXL5997
T3 chain: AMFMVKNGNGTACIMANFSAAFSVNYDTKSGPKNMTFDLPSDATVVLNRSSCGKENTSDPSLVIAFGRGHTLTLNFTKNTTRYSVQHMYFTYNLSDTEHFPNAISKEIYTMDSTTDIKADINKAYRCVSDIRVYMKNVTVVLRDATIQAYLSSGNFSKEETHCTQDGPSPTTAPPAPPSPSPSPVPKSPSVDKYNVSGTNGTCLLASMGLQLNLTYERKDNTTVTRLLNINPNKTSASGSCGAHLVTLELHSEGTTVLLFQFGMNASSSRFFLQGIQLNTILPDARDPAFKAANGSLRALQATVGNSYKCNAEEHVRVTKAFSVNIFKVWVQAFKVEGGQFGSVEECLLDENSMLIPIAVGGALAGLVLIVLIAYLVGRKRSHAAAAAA

[5] = molecular target: T4, LAMP1_mseq6_ΔGYQTI (human; mouse, UniProt P11279 29-412); assay: flow cytometry, transfected 293-F cells
T4 construct: on cells; also called pXL5990
T4 chain: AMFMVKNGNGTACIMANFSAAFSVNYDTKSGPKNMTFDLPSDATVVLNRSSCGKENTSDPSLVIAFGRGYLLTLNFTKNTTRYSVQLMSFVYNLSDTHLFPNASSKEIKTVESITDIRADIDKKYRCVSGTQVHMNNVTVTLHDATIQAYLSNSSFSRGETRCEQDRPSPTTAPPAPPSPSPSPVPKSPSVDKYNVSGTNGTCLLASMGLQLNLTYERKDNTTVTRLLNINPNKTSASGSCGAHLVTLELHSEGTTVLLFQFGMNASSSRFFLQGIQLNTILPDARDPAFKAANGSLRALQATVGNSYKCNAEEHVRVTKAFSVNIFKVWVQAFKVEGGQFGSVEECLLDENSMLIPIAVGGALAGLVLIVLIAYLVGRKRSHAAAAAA

[6] = molecular target: T5, LAMP1_mseq11_ΔGYQTI (human; mouse, UniProt P11279 29-412); assay: flow cytometry, transfected 293-F cells
T5 construct: on cells; also called pXL5995
T5 chain: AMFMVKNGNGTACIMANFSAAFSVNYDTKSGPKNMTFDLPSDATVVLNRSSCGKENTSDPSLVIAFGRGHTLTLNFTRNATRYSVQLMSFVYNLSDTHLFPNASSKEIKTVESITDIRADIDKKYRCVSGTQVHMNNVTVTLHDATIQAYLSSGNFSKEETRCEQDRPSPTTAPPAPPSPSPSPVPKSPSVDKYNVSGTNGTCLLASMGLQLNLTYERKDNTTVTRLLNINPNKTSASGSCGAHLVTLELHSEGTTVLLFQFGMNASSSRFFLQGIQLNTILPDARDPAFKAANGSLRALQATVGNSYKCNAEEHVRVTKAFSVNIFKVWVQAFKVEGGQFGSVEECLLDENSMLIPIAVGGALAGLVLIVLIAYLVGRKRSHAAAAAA

B1: MAb1 (antibody, mouse IgG2a, kappa)
heavy: QVQLQQSGAELVKPGASVKMSCKASGYIFTNYNIHWVKKSPGQGLEWIGAIYPGNGDAPYSQKFKDKATLTADKSSSTTYMQLSRLTSEDSAVYYCVRANWDVAFAYWGQGTLVSVSAAKTTAPSVYPLAPVCGDTTGSSVTLGCLVKGYFPEPVTLTWNSGSLSSGVHTFPAVLQSDLYTLSSSVTVTSSTWPSQSITCNVAHPASSTKVDKKIEPRGPTIKPCPPCKCPAPNLLGGPSVFIFPPKIKDVLMISLSPIVTCVVVDVSEDDPDVQISWFVNNVEVHTAQTQTHREDYNSTLRVVSALPIQHQDWMSGKEFKCKVNNKDLPAPIERTISKPKGSVRAPQVYVLPPPEEEMTKKQVTLTCMVTDFMPEDIYVEWTNNGKTELNYKNTEPVLDSDGSYFMYSKLRVEKKNWVERNSYSCSVVHEGLHNHHTTKSFSRTPGK
light: DIQMTQSPPSLSASLGGKVTITCKASQDIDRYMAWYQDKPGKGPRLLIHDTSTLQPGIPSRFSGSGSGRDYSFSISNLEPEDIATYYCLQYDNLWTFGGGTKLEIKRADAAPTVSIFPPSSEQLTSGGASVVCFLNNFYPKDINVKWKIDGSERQNGVLNSWTDQDSKDSTYSMSSTLTLTKDEYERHNSYTCEATHKTSTSPIVKSFNRNEC
notes: murine monoclonal IgG, kappa, from hybridoma; also called murine MAb1
[1]
  EC50: 4.9 nM
[2]
  EC50: 5.5 nM

B2: MAb3 (antibody, V domains shown)
VH: QIQLVQSGPELKKPGETVKISCKASGYIFTNYGMNWVKQAPGKGLKWMGWINTYTGESRYADDFKGRFALSLETSASTAYLQINNLENEDMATYFCAREDYYGNSPWFFDVWGAGTTVTVSS
VL: DIQMTQTTSSLSASLGDRVTISCNASQGINKYLNWYQQKPDGTVKLLIYYTSTLHSGVPSRFSGSGSGTDYSLTINNLEPEDIATYYCQQYTKLPFTFGSGTKLEIK
notes: murine monoclonal IgG, kappa, from hybridoma; also called murine MAb3
[3]
  EC50: 4 nM

B3: huMAb1_1 (antibody, human IgG1, kappa)
heavy: not shown
light: DIQMTQSPSSLSASVGDRVTITCKASQDIDRYMAWYQDKPGKAPRLLIHDTSTLQSGVPSRFSGSGSGRDYTLTISNLEPEDFATYYCLQYDNLWTFGGGTKVEIKRTVAAPSVFIFPPSDEQLKSGTASVVCLLNNFYPREAKVQWKVDNALQSGNSQESVTEQDSKDSTYSLSSTLTLSKADYEKHKVYACEVTHQGLSSPVTKSFNRGEC
notes: humanized, VH1-huIgG1 and VL1-huCk
[4]
  binding result: no binding
[5]
  binding result: no binding
[6]
  binding result: no binding
